Experimental data: patent US20240382561A1, “GLUCOREGULATORY COMPOUND, COMPOSITION AND USES THEREOF” (THE HONG KONG POLYTECHNIC UNIVERSITY, priority 2021, published 2024)

How the values were obtained:
db/db mice = experiment: Acute glucose tolerance test after i.p. injection of human CYSTM1 in db/db mice; assay type: in vivo, mouse; conditions: acute i.p. injection 1 mg/kg BW, vs PBS
[1] = system: diet-induced obesity and diabetes mouse model; experiment: Acute glucose tolerance test after i.p. injection or oral gavage of recombinant CYSTM1 in high-fat diet mice; assay type: in vivo; conditions: 1 h before GTT, obese mice, vs PBS
Protocol: In this example, an acute intraperitoneal (i.p.) glucose tolerance test (GTT) was performed using different administration methods of delivering recombinant CYSTM1 proteins. 8-week-old male C57BL/6J mice fed a high-fat diet for 12 weeks (diet-induced obesity and diabetes mouse model) were treated with different concentrations of CYSTM1 through i.p. injection (FIG. 3A-3C) or oral administration (FIGS. 3D-3F) for 1 h following a GTT by intraperitoneal injections of […]. Circulating CYSTM1 and insulin levels were determined by enzyme-linked immunosorbent assay (ELISA) (ImmunoDiagnostics, Hong Kong), and the glucose level was determined by a glucometer (Roche Diabetes Care, Indianapolis, IN, USA). […] As human and mouse CYSTM1 share high identity (89.4%) and similarity (90.4%), and human CYSTM1 appears to also lower circulating glucose in the db/db mice (a genetic mouse model of obesity and diabetes), it could be expected that human CYSTM1 may also function similarly with respect to human circulating glucose in an obese, diabetic human subject.

[2] = system: MIN6 pancreatic beta cell; experiment: Insulin secretion in MIN6 cells with GLP-1R antagonist exendin (9-39); assay type: cell-based, mouse; conditions: CYSTM1 10 nM, exendin (9-39) 10 nM
[3] = system: isolated pancreatic islet cells; experiment: Insulin secretion from mouse isolated pancreatic islets; assay type: cell-based; conditions: CYSTM1 1-1000 nM, 5.6 mM then 16.7 mM glucose, 45 min
Protocol: (§1) FIGS. 6A-6C show the change in insulin secretion from different pancreatic cells in a low (5.6 mM) and high (16.7 mM) glucose level treated by different concentrations of CYSTM1: FIG. 6A: MIN6 cells; FIG. 6B: β-TC-6 cells; FIG. 6C: mouse-isolated pancreatic islets (n=5-6 per cell type);
(§2) In this example, in vitro assays of insulin secretion in response to CYSTM1 treatment in low and high-glucose environments on the pancreatic cell lines (MIN6 and B-TC-6) and mouse isolated pancreatic islets were performed. Mouse insulinoma, MIN6 cells, were cultured in DMEM (Gibco) supplemented with 10% (v/v) FBS (Lonza), 100 U/mL penicillin and […], and 70 μM freshly added β-mercaptoethanol (Gibco) (37° C., 5% CO2). B-TC-6 cells were grown in RPMI 1640 medium (Gibco) containing 5.5 mM glucose and supplemented with 10% (v/v) FBS, 100 U/mL penicillin and […], and 2 mM L-glutamine. […] Following 45 min incubation of KRB solution, each well was removed and the insulin content of each sample was determined by a mouse insulin ELISA kit. The efficacy of CYSTM1 to stimulate insulin secretion was evaluated in each of the pancreatic cell lines: MIN6 cells (FIG. 6A), B-TC-6 cells (FIG. 6B), and isolated pancreatic islet cells (FIG. 6C).

[4] = system: high fat diet-induced obese (HFD) mice; experiment: Chronic daily oral gavage of CYSTM1 in high-fat diet-induced obese mice; assay type: in vivo, mouse
Protocol: In this example, 8-week-old male C57BL/6J mice fed with a high-fat diet (HFD) were treated daily with an oral gavage of recombinant CYSTM1 protein (1 mg/kg), and the control group of mice were gavaged with saline daily. CYSTM1 treatment was carried out after 8 weeks of HFD feeding (FIG. 4A).

mouse primary adipocytes = experiment: 2-NBDG glucose uptake in mouse primary adipocytes; assay type: cell-based; conditions: mouse primary adipocytes, CYSTM1 1-1000 nM, 1 h
Protocol: (§3) To determine whether CYSTM1 can increase glucose uptake in adipocytes, in vitro assays of 2-NBDG uptake in response to CYSTM1 treatment and potential inhibitors in 3T3-L1 adipocytes and mouse primary adipocytes were performed. 3T3-L1 preadipocytes were maintained in Dulbecco's modified Eagle's medium (DMEM) supplemented with 10% fetal bovine serum. Two days after confluence, 3T3-L1 cells were induced to differentiation using the standard adipogenic cocktail (0.5 mM IBMX, 1 μM dexamethasone and 10 μg/ml insulin) that was applied for 4 days and followed by 10 μg/ml insulin treatment for additional 4 days. The culture medium was changed every other day. The differentiated cells were maintained in normal serum containing DMEM. Mouse primary adipocytes were isolated from 10 to 12-week-old male C57BL/6J mice using a collagenase digestion protocol as described, briefly, white fat pads were removed, minced and digested using collagenase for 60-90 min at 37° C. in Krebs-Ringers phosphate HEPES buffer (KRPH) (15 mM HEPES, pH 7.4, 118 mM NaCl, 4.8 mM KCl, 1.2 mM MgSO4, 1.3 mM CaCl2, 1.2 mM KHPO3, 0.1% BSA). The stromal vascular fraction was separated from the adipocytes and cultured using DMEM and differentiated the same as 3T3-L1 adipocytes as described above. […] NBDG uptake was measured using a fluorescent microplate reader (Thermo Scientific Varioskan LUX Multimode Microplate Reader).

3T3-L1 adipocytes = experiment: 2-NBDG glucose uptake in 3T3-L1 adipocytes; assay type: cell-based; conditions: 3T3-L1 adipocytes, CYSTM1 1-1000 nM, 1 h
Protocol: as §3

[5] = system: STZ-induced diabetic male mice; experiment: Daily oral CYSTM1 in STZ-induced diabetic mice; assay type: in vivo, mouse; conditions: vs saline
Protocol: Turning to FIG. 7J, standard chow diet (STC) mice were injected with streptozotocin (STZ) to induce diabetes for five days and then treated with either CYSTM1 protein (1 mg/kg) or saline daily. The group of mice treated with saline were regarded as the control group.

MIN6 cells = experiment: Insulin secretion from MIN6 cells at low and high glucose; assay type: cell-based, mouse; conditions: CYSTM1 1-1000 nM, 5.6 mM or 16.7 mM glucose, 45 min
Protocol: as §1, §2

B-TC-6 cells = experiment: Insulin secretion from B-TC-6 cells at low and high glucose; assay type: cell-based; conditions: CYSTM1 1-1000 nM, 5.6 mM or 16.7 mM glucose, 45 min
Protocol: as §1, §2

[6] = i.p. injection of CYSTM1 (0.5 and 1 mg/kg BW)
[7] = oral gavage of CYSTM1 1 mg/kg BW

Molecule	glucose levels (GTT) (db/db mice)	circulating insulin [1, 6]	glucose levels (GTT) [1, 6]	circulating insulin [1, 7]	glucose levels (GTT) [1, 7]	insulin secretion induced by CYSTM1 in presence of exendin (9-39) [2]	insulin secretion [3]	feeding blood glucose level ([4]; 1 mg/kg oral gavage once daily, HFD mice, vs saline)	fasting insulin concentration ([4]; day 10, 1 mg/kg oral gavage once daily, HFD mice, vs saline)	glucose homeostasis by IPGTT ([4]; day 20, 1 mg/kg oral gavage once daily, vs control HFD-fed mice)	glucose (2-NBDG) uptake (mouse primary adipocytes)	glucose (2-NBDG) uptake (3T3-L1 adipocytes)	feeding blood glucose level ([5]; 1 mg/kg oral daily)	glucose regulation by IPGTT ([5]; day 15, 1 mg/kg oral daily)	insulin secretion (MIN6 cells)	insulin secretion (B-TC-6 cells)
cysteine rich transmembrane module containing 1 (protein, UniProt Q9H1C7 1-97, looked up, human CYSTM1, 97 amino acid long peptide) Cysteine-rich and …: MNQENPPPYPGPGPTAPYPPYPPQPMGPGPMGGPYPPPQGYPYQGYPQYGWQGGPQEPPKTTVYVVEDQRRDELGPSTCLTACWTALCCCCLWDMLT	lower glucose levels															
cysteine rich transmembrane module containing 1 (protein, UniProt Q8K353 1-104, looked up, recombinant mouse CYSTM1 protein, 104 amino acid long glucoregulatory peptide) Cysteine-rich and …: MNPENPPPYPGPGPTAPYPPYPQQPMGPMGPMGAPPPQGYPYPPPQGYPYQGYPQYGWQGGPQEPPKTTVYVVEDQRRDDLGPSTCLTACWTALCCCCLWDMLT		increase circulating insulin	lower glucose levels	increase circulating insulin	lower glucose levels	not affected by the presence of exendin (9-39)	concentration-dependent increase in insulin secretion	significantly reduced feeding blood glucose level	decreased level of fasting insulin concentration	better glucose homeostasis	concentration-dependent increase	concentration-dependent increase	significantly lower feeding blood glucose level	protects from STZ-induced glucose dysregulation	concentration-dependent increase in insulin secretion	concentration-dependent increase in insulin secretion
